In a protein production outcome set (Wang et al. 2014):

Assay: label from the status in PepcDB records

Sequence | protein production
MEKLNFGIPEWAFEFHGHKCPYMPMGYRAGSYALKIAGLEKEKDHRTYLLSEMSPEDMNGCFNDGAQAATGCTYGKGLFSLLGYGKLALILYRPGRKAIRVHVRNSFMDELSTRASDFFRYRKQGYEPSEIPAGAIDPVLEWISSLEDEEIFEYREIDGFTFEPVKKNGAKVRCDVCGEYTYEADAKLLNGKPVCKPDYYGKK | not failed
MLYNSYMLLTYQFKLNPTSEQVVILETWGELLRRHWNYALGERLDWLRRTRSLLDRCSLVSEPIGGIPDKPDYYTQASDLQQTKDLFPDYKNIYADCQQQNLMRLDKAWKRWLIPDKKGNRGGKPRFKKRGDISSFTFPRVNSPKAGAHLTGNILKLSKIGEIEVILHRPIPNGSEIKQATILSKSDGWYVSFSLEDKTVPELLPIDEIKTATGIDVGLEKFLTTAHGQSIEVPQYSRKTQSKLARQQRKLARKIHGSKNYQKQASRVARIHLHVARQRKEFHYQVAHWLVKSYDLIVFENLNIRGLARTRLAKSILDVAWGAFLQIMQAVAVRRGKHTRGVDPRGTSINCSGCGQRVEKTLAVRVHNCSCGLVIDRDWNSAINLLNYGSVGLPIPGCGGLGVSQPVKQQVSYVNLRCSRYTACS | failed
EVVVAVASAPVDVAQVGRRRGRLAVIGLGPGAAELMVPAVKAELAQAEDVLGYETYVRMAGPFRGDQVLHCTDNREEMQRARHAFELAAQGRSVAVVSSGDPGVFAMAAAVLEALHESSDPTWHRVDLQILPGV | failed
MVIGVTGKIGTGKSTVCEILKNKYGAHVVNVDRIGHEVLEEVKEKLVELFGGSVLEDGKVNRKKLAGIVFESRENLKKLELLVHPLMKKRVQEIINKTSGLIVIEAALLKRMGLDQLCDHVITVVASRETILKRNREADRRLKFQEDIVPQGIVVANNSTLEDLEKKVEEVMKLVWEKRE | not failed
MKNPDYEPSKPHHTPDGFRNRYPHAPRDSNGSAWKWMRERRRLGLPKPPTADLSCVPPDLAAIRRPSAVPQVTWIGHETLLLQIDGLNVLTDPVFGERASPLPFAGPRRHQPPGLSLAQLPHIDLVLLSHNHYDHLCRASVRALMRQPGGAPMFFVPLGIDRWFKRHVRGTRLSGEHVNVRAFDWDTEARFGPFSVHFCAVQHWSARGLYDRNRTLWGSWALLHPQLRFWFSGDLGYSQDTRDIGARFGHFDVAAIAVGAYEPRWFMKTQHIDPAEAVQVMQDIGARHAVGIHWGTFPLTDEPLDQPIADLANALRARDIDAERFVLFRHGETRVWDAQAARLLTPAEQQKARPRVDSLAAQ | failed
MLRPRTIKEGSVGLFALLGLFIIGGIVLWLRGGAFGNPGYEVLVQFDDASGLQVGGAVRYRGVPVGRVAKLIPGSNGILAQLEISSTQLRIPADVQVEISRYGLLGEAAIDMIPDRQLSEAALAIDPLSADCAESDKILCDGDELEGQAGTQLTNSMARLAQAYSEPEFVADINATVKSANLAAARIAAMSAEITALSKTANQQVRGFERTSEAIAKAADNASLLTSRVDQVVQTNQGYINRTIEEASLLMVNLNQLVGENRAQFNLTLKSIETTNRDLQAIGQEIQTAVGTINHGLAAIDTQKVTNDLALLMENAAVTSNNIRQISNDLNDPTLMLTLQQTLDAARLTFENAQKITSDVEQLTGDPAFRNNLRKLVDGLGQLVSSTENLQDRVYTAHTLERSGQQLRFQLDHQQQLALYYEQWGVINPVPASGSPSPQIQTPKIKPPQPKENQGK | failed
SQEANYGALLRELCLTQFQVDMEAVGETLWCDWGRTIRSYRELADCTWHMAEKLGCFWPNAEVDRFFLAVHGRYFRSCPISGRAVRDPPGSILYPFIVVPITVTLLVTALVVWQSKRTEGIV | failed
MASSFLEEVDRLITLSGITFHASGTGTPELIKIYQDALGNEFPETYKLFLEKYGTLTFNGVSFYGISKRGLSAASIPDVKFATEQARTFGDINKEMIMIKNSGYGSIFSIDTSIIGSEGEPVIVETNLSFKDNTEKKVVANSFGEFLLEEIELSLTDLG | not failed
MAANNSIEWRAVCEKFRLAQELSEIESKKDPENNPFRSKYKARDLLKEIHCSLKKIEIEEQGEAGDEADCESSQTADGEPEDGFEKTFTGDSAAGLRAARLAVLQYHLGVNHIETEELSAGELHLMVCMKLIDKCTTTRENVSLFIHVRNQLGILWAGRDEIEKAQGFLEIAETMYLVYMKEDGQPPLDLQDFFVPEGESQSFTGVLQLRSAVLRGESRSQERCRNRARAEYGDGLPAPSEDQQNSIHSGLLQLKW | failed
MSYLSQAPLYSSIPRKNCPIAWEGQFTRGDKGTSTISFEAVASHDLWIWHTFFGCASTLNDINFLDRSPVFDDIEQGNTPRVNFFVYQRQYNMAYYLADGIYPSYPTFVKSIRLPQSEPDKLFVQLQEGCRKDIERAFGVLHARFKIIWNIADLAIIMRSCIILHNMIVENERDTYAQHWTDYDQSKESGSSTPQPFSTEVLHAFANHVHARSKLRDSICTS | not failed
MSRRSHNPQSCSSVPTALINGPRVETMTDSVLDVTADALEQAGAHPHRLVVRQHGQVVGRRRWAPWSPDVPSLVYSCSKTFTSAAVGIAVNRGAFGYDDTLADLWPQACTANTGPVAKSMTVRNALSMSTGHSPEQLLEPTLMSRRLPDLNTARILLATEPEGRPGIDFAYNNLATWMLSRLVAQHTGEDVDTIITKEVLDPIGAGPHTWVRDADGIPMGFSGLHIDAEDLSLFGQLLLDDGVHEGARLLPEEWIRQHRVRQVNCDSETDPEWGMGYGWQTWMSSHGYRLDGAFGQYVLIVPEVDAVITMTNEASEGPGDKQAILQAVWDHLLPALADGFQPQPEEIVRTVPTVTGEFDSARSVQGIAPDGSYIVVSPHKESRTWAMSWRCPGTFSHPTDETLDIAVGYEEWQTSHCRVGDDAIDIATSGGWQGETFVARLCVISTPHTLTLRMTPEATTTEWDNEPLNPGGLLGLVHPELRR | failed
MSTVAFHTLGCKVNHYETEAIWQLFKQGGYERTEYEKKADVYVINTCTVTNTGDKKSRQVIRRAVRQNPDAVICVTGCYAQTSPAEIMAIPGVDIVVGTQDREKMLGYIEEFRKERQPINAVRNIMKTRVYEELDVPYFTDRTRASLKIQEGCNNFCTFCIIPWARGLMRSRDGKEVIKQAQQLVDAGYKEIVLTGIHTGGYGEDIKDYNLAGLLRDMEAEVGGLKRLRISSIEASQISDEVIEVLDKSEVVVRHLHIPLQSGSNTVLKRMRRKYTMEFFQERLDRLKEALPGLAITSDVIVGFPGETEEEFMETYNFIKENRFSELHVFPYSKRTGTPAARMEDQVPEDVKNDRVHRLIELSNQLAKEYASQFEGEVLEIIPEEQFKEGDREGLYVGYTDNYLKIVFEGSEELIGKLVKVKITKAGYPYNEAQFVRVLEDDVKKESASALEHHHHHH | failed
MRARLYAAFRQVGEDLFAQGLISATAGNFSVRTKGGFLITKSGVQKARLTPEDLLEVPLEGPIPEGASVESVVHREVYRRTGARALVHAHPRVAVALSFHLSRLRPLDLEGQHYLKEVPVLAPKTVSATEEAALSVAEALREHRACLLRGHGAFAVGLKEAPEEALLEAYGLMTTLEESAQILLYHRLWQGAGPALGGGE | not failed
MRNSMMTIYPHLIICPHCDSVHHYRALNPGEAARCTRCQATLYRSGWINTGHSLALIQTAAIVFFIANSYPVLTVSFHALQNTATLWQAALALANGATLPLAIGCFFILIMAPFLQIMLTGWVLMFANKDRCAPGFIPVMKILLWLRPWSMLEIATLGFLIAAIKLSGFMQVMPGAGCWALAALMLLLVVVNSIDLRPLWSLVPTDSNHSVVRHEK | failed
MNVVRYTPWPGQAALQNEIKQVFDRFFEHNGDTDESAVVTAQWVPRVDIKEEPNQFVLYADLPGIDPADIEVQMDKGILSIKGERKTESSSQTEHFSRIERRYGSFHRRFALPDSADADGITASGSHGVLRILIPKQAATTPRRIQVGNAVSSDVALQSMLEHHHHHH | not failed
MRKVQVLVQTRDGKKTVYEVDRLGTVASLKARIGQVMSVPMGFSRLSYKGRVLSNQSVLEDLGPNKSTLDLTWKPVVLTANQSSKLSKFGYGRIDDSEVMFTLIGGYQQREEYPGGLVNPPDDESQLNFNAGDDDDALEAQDMTGHDLSSIQTDDLSLKGQTEPELDCSIGSHGFSGSQEEGHE | failed
GQPSNDKKNVLPDWAFGGFERPQGANPVISPIENTKFYCPMTQDYVAWESNDTFNPAATLHDGKIVVLYRAEDKSGVGIGHRTSRLGYATSSDGIHFKREKTPVFYPDNDTQKKLEWPGGCEDPRIAVTAEGLYVMTYTQWNRHIPRLAIATSRNLKDWTKHGPAFAKAYDGKFFNLGCKSGSILTEVVNGKQVIKKIDGKYFMYWGEEHVFAATSEDLVNWTPYVNTDGSLRKLFSPRDGHFDSQLTECGPPAIYTPKGIVLLYNGKNSASRGDKRYTANVYAAGQALFDANDPTRFITRLDEPFFRPMDSFEKSGQYVDGTVFIEGMVYYKDKWYLYYGCADSKVGMAIYNPKKPAAADPLP | not failed
MESKTNYTIVGLIVLILTAGLLSAGLWLSVGFNQKEYTSYTVYLKESVSGLSVESPVKFNGVQVGYVKEIKLNKNDPRQVELLLNIEKSTPITTSTSATLITQGITGVTYVGLSAGSSELTPLRKMPGEPYPVIPSKPSLLNQLDAVLKEVAENVGAVSEKAQLIFNEENADNVRKSLANLERITEIIADKGQTIDSSLNNLDVFVANMANASKQFPQLIKDLKTGISKFKSLADNMSAAGKDVSKTMIAGKNTIDQISQQAIPPAVILLRRLNAISANLEKVSNEMRQNPSVIIRGTKAPKLGPGELEHHHHHH | failed
MAFSGSQAPYLSPAVPFSGTIQGGLQDGLQITVNGTVLSSSGTRFAVNFQTGFSGNDIAFHFNPRFEDGGYVVCNTRQNGSWGPEERKTHMPFQKGMPFDLCFLVQSSDFKVMVNGILFVQYFHRVPFHRVDTISVNGSVQLSYISFQNPRTVPVQPAFSTVPFSQPVCFPPRPRGRRQKPPGVWPANPAPITQTVIHTVQSAPGQMFSTPAIPPMMYPHPAYPMPFITTILGGLYPSKSILLSGTVLPSAQRFHINLCSGNHIAFHLNPRFDENAVVRNTQIDNSWGSEERSLPRKMPFVRGQSFSVWILCEAHCLKVAVDGQHLFEYYHRLRNLPTINRLEVGGDIQLTHVQT | not failed
MSKKPPNRPGITFEIGARLEALDYLQKWYPSRIEKIDYEEGKMLVHFERWSHRYDEWIYWDSNRLRPLERPALRKEGLKDE | not failed
MSYQNANYSAFYVSEPFSESNLGANSTHDFVYYNMLRMWKGEDNSFPFNDAHDKTYNVRDGSDWEKTLKPRLHTRLDNSKNIILFLSSITANSRALREEMNYGIGTKGLPVIVIYPDYDKKSDIVDSNGNFKKQIKDLWDKLPAFRDNMSSVATLHIPCTKSVIISALNNEDFMVNTMADAEKYYYKP | not failed
MRCRFPYDGKQRIILEEGYPVYECNKFCGCSRTCQNRVLQNGIRAKLEVFRTESKGWGLRACEHILRGTFVCEYIGEVLDQQEANKRRNQYGNGDCSYILDIDANINDIGRLMEEELDYAIDATTHGNISRFINHSCSPNLVNHQVIVESMESPLAHIGLYASMDIAAGEEITRDYGRRPVPSEQENEHPCHCKATNCRGLLS | failed
MAIMASRKHLKRFKSPVHWPIHPKEYKWTVKPSPGPHAIENSLPLMIIVRDILKVADNAREARKIINSGEVLVDGRPRKNYKFPVGFMDVVSIPRTGDVYRVLPDERGRLVLHPIDEENAGFKLCKIVNKTTIKGGRTQLNLHDGRNYLSDDEFRVGDVVKLSIPEQEILERIPFEKDSLGLVTGGRHTGEIGKIKKINITRSSMPNTAVIETGAGKTFLTLKDYVFVIGKDESVISLPGGKLEHHHHHH | failed
